Holding throughout (experiment): cell_activity; PAM NGG; HEK293T
Holding throughout (conditions): tags: N- and C-terminal NLS

For one data set, the target named is T1, Nuclease K D582R (D582R).
T1 chain: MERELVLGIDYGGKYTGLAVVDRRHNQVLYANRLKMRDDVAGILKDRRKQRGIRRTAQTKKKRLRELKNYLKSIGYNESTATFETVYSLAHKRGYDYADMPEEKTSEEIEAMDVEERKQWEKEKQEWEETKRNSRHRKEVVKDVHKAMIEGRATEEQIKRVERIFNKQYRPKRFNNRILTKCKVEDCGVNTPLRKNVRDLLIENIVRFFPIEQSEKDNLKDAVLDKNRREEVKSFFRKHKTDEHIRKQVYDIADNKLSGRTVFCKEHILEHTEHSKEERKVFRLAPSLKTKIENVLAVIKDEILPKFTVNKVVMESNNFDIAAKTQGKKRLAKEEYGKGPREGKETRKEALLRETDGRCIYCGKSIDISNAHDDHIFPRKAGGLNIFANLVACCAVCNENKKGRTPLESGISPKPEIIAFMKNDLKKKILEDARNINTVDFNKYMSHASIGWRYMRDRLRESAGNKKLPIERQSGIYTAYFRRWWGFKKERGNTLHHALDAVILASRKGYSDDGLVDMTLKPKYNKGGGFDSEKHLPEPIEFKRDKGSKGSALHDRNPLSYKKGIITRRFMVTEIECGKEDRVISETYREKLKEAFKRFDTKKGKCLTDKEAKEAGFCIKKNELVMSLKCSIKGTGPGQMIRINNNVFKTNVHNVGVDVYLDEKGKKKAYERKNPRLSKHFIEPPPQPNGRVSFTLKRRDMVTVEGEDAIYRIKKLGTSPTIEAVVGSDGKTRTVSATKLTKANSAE

The target in a further data set is T2, Nuclease K D46R (D46R).
T2 chain: T1 chain with D46R, R582D

A further data set has as its target T3, Nuclease K G42R (G42R).
T3 chain: T1 chain with G42R, R582D

Residue numbers refer to the chain shown, from its start.

B1: Nuclease K AAVS1-T3 guide ; AAVS1-T3 target (ssRNA ; dsDNA)
RNA: UUGUGAGAAUGGUGCGUCCUGUUACAGUUAAGGCUCUGAAAAGAGCCUUAAUUGUAAAACGCCUAUACAGUGAAGGGAUAUACGCUUGGGUUUGUCCAGCCUGAGCCUCUAUGCCAGAAAUGGCGCCUUCAUCGUGGGUUAGGACAUUUAAAUUUAAAAACUAUUCAGCACUGUUUGCUCUUGUCAGCUUGGUGGCAGA
DNA 1: TTGTGAGAATGGTGCGTCCT
DNA 2: AGGACGCACCATTCTCACAA
For B1, the binding signal worked out at 3.68 fold vs Nuclease K in the data set with Nuclease K D582R, 6.71 fold vs Nuclease K with Nuclease K D46R and 3.94 fold vs Nuclease K with Nuclease K G42R.

B2: Nuclease K EMX1-T7 guide ; EMX1-T7 target (ssRNA ; dsDNA)
RNA: CUUUAGCAAGGGACUAUUCAGUUACAGUUAAGGCUCUGAAAAGAGCCUUAAUUGUAAAACGCCUAUACAGUGAAGGGAUAUACGCUUGGGUUUGUCCAGCCUGAGCCUCUAUGCCAGAAAUGGCGCCUUCAUCGUGGGUUAGGACAUUUAAAUUUAAAAACUAUUCAGCACUGUUUGCUCUUGUCAGCUUGGUGGCAGA
DNA 1: CTTTAGCAAGGGACTATTCA
DNA 2: TGAATAGTCCCTTGCTAAAG
As to B2, the binding signal worked out at 31.8 fold vs Nuclease K with Nuclease K D582R, 9.86 fold vs Nuclease K in the data set with Nuclease K D46R and 5.3 fold vs Nuclease K in the data set with Nuclease K G42R.

For the origin of these results see patent publication US20260275311, “CRISPR NUCLEASE POLYPEPTIDES AND GENE EDITING SYSTEMS COMPRISING SUCH” (ARBOR BIOTECHNOLOGIES, INC., published 2026).
